The values that follow come from publication PMC5073374.

This experiment deals with Link module from human TSG-6 (Link_TSG6) (human) (UniProt P98066). Put plainly: AUC.

By stoichiometry N is commonly meant the number of molecules, sites or subunits per partner or assembly. As for “Link module from human TSG-6 (Link_TSG6) (from UniProt P98066 36-133) (domain or fragment)”, the stoichiometry N was found to be 2.
